Measured values from the supplement of paper PMC10567573.

B1: DLC1 (parent)
chain: HVTHWMGQPFNSDDRNTACHHGLV

Variants of: B1
Assay: protein stability index of a GFP-peptide fusion (GPS, HEK-293T) (PSI 1-6); higher = more stable
Conditions: c terminus: a fixed tail appended
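Also: lentivirally expressed fusions sorted by FACS into six bins by GFP to DsRed ratio, PSI derived from sequencing read proportions per bin multiplied by bin number.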

Row | Variant | protein stability index
1 | HVTHWMGQPFNSDDRNKACHHGLV | 2.01
2 | HVTHWMGQPFNSDDRNGACHHGLV | 2.04
3 | HVTHWMGQPFNSDDRNDACHHGLV | 2.65
4 | HVTHWMGQPFNSDDRNPACHHGLV | 2.17
5 | HVTHWMGQPFNSDDRNNACHHGLV | 2.21
6 | HVTHWMGQPFNSDDRNFACHHGLV | 2.06
7 | HVTHWMGQPFNSDDRNIACHHGLV | 2.25
8 | HVTHWMGQPFNSDDRNCACHHGLV | 1.66
9 | HVTHWMGQPFNSDDRNAACHHGLV | 1.99
10 | HVTHWMGQPFNSDDRNLACHHGLV | 1.68
11 | HVTHWMGQPFNSDDRNRACHHGLV | 1.99
12 | HVTHWMGQPFNSDDRNEACHHGLV | 2.32
13 | HVTHWMGQPFNSDDRNQACHHGLV | 2.38
14 | HVTHWMGQPFNSDDRNHACHHGLV | 2.23
15 | HVTHWMGQPFNSDDRNMACHHGLV | 1.72
16 | HVTHWMGQPFNSDCRNTACHHGLV | 1.68
17 | HVTHWMGQPFNSDRRNTACHHGLV | 2.01
18 | HVTHWMGQPFNSDVRNTACHHGLV | 1.71
19 | HVTHWMGQPFNSDARNTACHHGLV | 1.9
20 | HVTHWMGQPFNSDKRNTACHHGLV | 1.47
21 | HVTHWMGQPFNSDLRNTACHHGLV | 1.31
22 | HVTHWMGQPFNSDMRNTACHHGLV | 1.64
23 | HVTHWMGQPFNSDQRNTACHHGLV | 2.31
24 | HVTHWMGQPFNSDHRNTACHHGLV | 2.66

Row | Variant | protein stability index
25 | HVTHWMGQPFNSDYRNTACHHGLV | 1.44
26 | HVTHWMGQPFNSDGRNTACHHGLV | 1.86
27 | HVTHWMGQPFNSDWRNTACHHGLV | 1.65
28 | HVTHWMGQPFNSDPRNTACHHGLV | 2.16
29 | HVTHWMGQPFNSDNRNTACHHGLV | 1.86
30 | HVTHWMGQPFNSDTRNTACHHGLV | 1.99
31 | HVTHWMGQPFNSDSRNTACHHGLV | 1.83
32 | HVTHWMGQPFNSDFRNTACHHGLV | 2.35
33 | HVTHWMGQPFNSDERNTACHHGLV | 1.7
34 | HVTHWMGQPFNSDIRNTACHHGLV | 1.53
35 | HVTHWMGQPHNSDDRNTACHHGLV | 2.05
36 | HVTHWMGQPSNSDDRNTACHHGLV | 2.35
37 | HVTHWMGQPVNSDDRNTACHHGLV | 2.36
38 | HVTHWMGQPANSDDRNTACHHGLV | 2.53
39 | HVTHWMGQPKNSDDRNTACHHGLV | 2.78
40 | HVTHWMGQPMNSDDRNTACHHGLV | 2.53
41 | HVTHWMGQPGNSDDRNTACHHGLV | 2.77
42 | HVTHWMGQPYNSDDRNTACHHGLV | 1.92
43 | HVTHWMGQPNNSDDRNTACHHGLV | 2.86
44 | HVTHWMGQPENSDDRNTACHHGLV | 2.75
45 | HVTHWMGQPWNSDDRNTACHHGLV | 1.93
46 | HVTHWMGQPRNSDDRNTACHHGLV | 2.79
47 | HVTHWMGQPPNSDDRNTACHHGLV | 2.54
48 | HVTHWMGQPDNSDDRNTACHHGLV | 3.03

Row | Variant | protein stability index
49 | HVTHWMGQPLNSDDRNTACHHGLV | 2.01
50 | HVTHWMGQPCNSDDRNTACHHGLV | 1.94
51 | HVTHWMGQPTNSDDRNTACHHGLV | 2.29
52 | HVTHWMGQPQNSDDRNTACHHGLV | 2.5
53 | HVTHWMGQPINSDDRNTACHHGLV | 2.04
54 | HVTHWMGQPFGSDDRNTACHHGLV | 2.13
55 | HVTHWMGQPFCSDDRNTACHHGLV | 2.17
56 | HVTHWMGQPFESDDRNTACHHGLV | 2.58
57 | HVTHWMGQPFRSDDRNTACHHGLV | 2.17
58 | HVTHWMGQPFHSDDRNTACHHGLV | 1.8
59 | HVTHWMGQPFPSDDRNTACHHGLV | 2.3
60 | HVTHWMGQPFVSDDRNTACHHGLV | 2.62
61 | HVTHWMGQPFWSDDRNTACHHGLV | 3.88
62 | HVTHWMGQPFDSDDRNTACHHGLV | 2.58
63 | HVTHWMGQPFYSDDRNTACHHGLV | 2.26
64 | HVTHWMGQPFQSDDRNTACHHGLV | 2.23
65 | HVTHWMGQPFFSDDRNTACHHGLV | 1.65
66 | HVTHWMGQPFLSDDRNTACHHGLV | 2.14
67 | HVTHWMGQPFTSDDRNTACHHGLV | 2.02
68 | HVTHWMGQPFASDDRNTACHHGLV | 2.07
69 | HVTHWMGQPFSSDDRNTACHHGLV | 1.69
70 | HVTHWMGQPFKSDDRNTACHHGLV | 1.86
71 | HVTHWMGQPFISDDRNTACHHGLV | 1.94
72 | HVTHWMGQPFMSDDRNTACHHGLV | 2.07

Row | Variant | protein stability index
73 | HVTHWMYQPFNSDDRNTACHHGLV | 1.88
74 | HVTHWMWQPFNSDDRNTACHHGLV | 3.07
75 | HVTHWMGQPFNSDDNNTACHHGLV | 2.38
76 | HVTHWMGQPFNSDDYNTACHHGLV | 1.74
77 | HVTHWMGQPFNSDDVNTACHHGLV | 2.11
78 | HVTHWMGQPFNSDDLNTACHHGLV | 2.29
79 | HVTHWMGQPFNSDDGNTACHHGLV | 1.94
80 | HVTHWMGQPFNSDDINTACHHGLV | 1.95
81 | HVTHWMGQPFNSDDWNTACHHGLV | 1.73
82 | HVTHWMGQPFNSDDDNTACHHGLV | 2.23
83 | HVTHWMGQPFNSDDANTACHHGLV | 2.22
84 | HVTHWMGQPFNSDDCNTACHHGLV | 1.99
85 | HVTHWMGQPFNSDDKNTACHHGLV | 2.11
86 | HVTHWMGQPFNSDDENTACHHGLV | 2.32
87 | HVTHWMGQPFNSDDHNTACHHGLV | 2.06
88 | HVTHWMGQPFNSDDPNTACHHGLV | 1.82
89 | HVTHWMGQPFNSDDSNTACHHGLV | 2.4
90 | HVTHWMGQPFNSDDFNTACHHGLV | 2.25
91 | HVTHWMGQPFNSDDQNTACHHGLV | 2.01
92 | HVTHWMGQPFNSDDMNTACHHGLV | 1.83
93 | HVTHWMGQPFNSDDTNTACHHGLV | 2.31
94 | HVTHWMGQEFNSDDRNTACHHGLV | 2.3
95 | HVTHWMGQSFNSDDRNTACHHGLV | 2.06
96 | HVTHWMGQHFNSDDRNTACHHGLV | 2.23

Row | Variant | protein stability index
97 | HVTHWMGQIFNSDDRNTACHHGLV | 1.75
98 | HVTHWMGQMFNSDDRNTACHHGLV | 2.38
99 | HVTHWMGQKFNSDDRNTACHHGLV | 1.9
100 | HVTHWMGQLFNSDDRNTACHHGLV | 2
101 | HVTHWMGQYFNSDDRNTACHHGLV | 2.43
102 | HVTHWMGQDFNSDDRNTACHHGLV | 1.99
103 | HVTHWMGQTFNSDDRNTACHHGLV | 2.29
104 | HVTHWMGQGFNSDDRNTACHHGLV | 1.88
105 | HVTHWMGQFFNSDDRNTACHHGLV | 1.43
106 | HVTHWMGQRFNSDDRNTACHHGLV | 2.21
107 | HVTHWMGQCFNSDDRNTACHHGLV | 1.75
108 | HVTHWMGQVFNSDDRNTACHHGLV | 1.55
109 | HVTHWMGQAFNSDDRNTACHHGLV | 2.36
110 | HVTHWMGQQFNSDDRNTACHHGLV | 2.4
111 | HVTHWMGQWFNSDDRNTACHHGLV | 1.6
112 | HVTHWMGQNFNSDDRNTACHHGLV | 2.2
113 | HVTHWMGQPFNSFDRNTACHHGLV | 1.81
114 | HVTHWMGQPFNSWDRNTACHHGLV | 1.6
115 | HVTHWMGQPFNSEDRNTACHHGLV | 2.07
116 | HVTHWMGQPFNSSDRNTACHHGLV | 1.72
117 | HVTHWMGQPFNSIDRNTACHHGLV | 1.92
118 | HVTHWMGQPFNSKDRNTACHHGLV | 2.32
119 | HVTHWMGQPFNSVDRNTACHHGLV | 1.37
120 | HVTHWMGQPFNSGDRNTACHHGLV | 2

Row | Variant | protein stability index
121 | HVTHWMGQPFNSLDRNTACHHGLV | 2.05
122 | HVTHWMGQPFNSMDRNTACHHGLV | 1.13
123 | HVTHWMGQPFNSCDRNTACHHGLV | 1.8
124 | HVTHWMGQPFNSNDRNTACHHGLV | 2.11
125 | HVTHWMGQPFNSYDRNTACHHGLV | 2.26
126 | HVTHWMGQPFNSRDRNTACHHGLV | 1.62
127 | HVTHWMGQPFNSQDRNTACHHGLV | 1.62
128 | HVTHWMGQPFNSHDRNTACHHGLV | 1.77
129 | HVTHWMGQPFNSADRNTACHHGLV | 1.48
130 | HVTHWMGQPFNSPDRNTACHHGLV | 2.14
131 | HVTHWMGQPFNSTDRNTACHHGLV | 1.94
132 | HVTHWMGQPFNSDDRKTACHHGLV | 1.98
133 | HVTHWMGQPFNSDDRATACHHGLV | 1.75
134 | HVTHWMGQPFNSDDRSTACHHGLV | 1.81
135 | HVTHWMGQPFNSDDRPTACHHGLV | 1.64
136 | HVTHWMGQPFNSDDRFTACHHGLV | 1.92
137 | HVTHWMGQPFNSDDRGTACHHGLV | 1.97
138 | HVTHWMGQPFNSDDRTTACHHGLV | 1.99
139 | HVTHWMGQPFNSDDRYTACHHGLV | 2.32
140 | HVTHWMGQPFNSDDRITACHHGLV | 2.13
141 | HVTHWMGQPFNSDDRQTACHHGLV | 2.67
142 | HVTHWMGQPFNSDDRWTACHHGLV | 1.3
143 | HVTHWMGQPFNSDDRDTACHHGLV | 2.35
144 | HVTHWMGQPFNSDDRVTACHHGLV | 1.22

Row | Variant | protein stability index
145 | HVTHWMGQPFNSDDRCTACHHGLV | 2.54
146 | HVTHWMGQPFNSDDRLTACHHGLV | 1.8
147 | HVTHWMGQPFNSDDRMTACHHGLV | 1.76
148 | HVTHWMGQPFNSDDRHTACHHGLV | 2.43
149 | HVTHWMGQPFNSDDRETACHHGLV | 2.35
150 | HVTHWMGQPFNSDDRRTACHHGLV | 2.16
151 | HVTHWMGAPFNSDDRNTACHHGLV | 2.26
152 | HVTHWMGGPFNSDDRNTACHHGLV | 1.81
153 | HVTHWMGMPFNSDDRNTACHHGLV | 1.28
154 | HVTHWMGSPFNSDDRNTACHHGLV | 2.15
155 | HVTHWMGEPFNSDDRNTACHHGLV | 2.43
156 | HVTHWMGFPFNSDDRNTACHHGLV | 2.05
157 | HVTHWMGNPFNSDDRNTACHHGLV | 1.92
158 | HVTHWMGHPFNSDDRNTACHHGLV | 2.32
159 | HVTHWMGKPFNSDDRNTACHHGLV | 2.27
160 | HVTHWMGLPFNSDDRNTACHHGLV | 1.22
161 | HVTHWMGDPFNSDDRNTACHHGLV | 2.03
162 | HVTHWMGYPFNSDDRNTACHHGLV | 1.74
163 | HVTHWMGTPFNSDDRNTACHHGLV | 2.6
164 | HVTHWMGRPFNSDDRNTACHHGLV | 2.15
165 | HVTHWMGCPFNSDDRNTACHHGLV | 2.14
166 | HVTHWMGVPFNSDDRNTACHHGLV | 1.77
167 | HVTHWMGWPFNSDDRNTACHHGLV | 1.55
168 | HVTHWMGPPFNSDDRNTACHHGLV | 2.1

Row | Variant | protein stability index
169 | HVTHWMGIPFNSDDRNTACHHGLV | 2.66
170 | HVTHWMGQPFNFDDRNTACHHGLV | 1.85
171 | HVTHWMGQPFNTDDRNTACHHGLV | 2.02
172 | HVTHWMGQPFNQDDRNTACHHGLV | 1.98
173 | HVTHWMGQPFNMDDRNTACHHGLV | 2.61
174 | HVTHWMGQPFNEDDRNTACHHGLV | 2.52
175 | HVTHWMGQPFNADDRNTACHHGLV | 2.02
176 | HVTHWMGQPFNVDDRNTACHHGLV | 1.8
177 | HVTHWMGQPFNYDDRNTACHHGLV | 1.78
178 | HVTHWMGQPFNGDDRNTACHHGLV | 2.34
179 | HVTHWMGQPFNRDDRNTACHHGLV | 2.01
180 | HVTHWMGQPFNWDDRNTACHHGLV | 1.92
181 | HVTHWMGQPFNHDDRNTACHHGLV | 2.04
182 | HVTHWMGQPFNPDDRNTACHHGLV | 2.29
183 | HVTHWMGQPFNDDDRNTACHHGLV | 2.62
184 | HVTHWMGQPFNCDDRNTACHHGLV | 1.51
185 | HVTHWMGQPFNIDDRNTACHHGLV | 2.05
186 | HVTHWMGQPFNLDDRNTACHHGLV | 2.11
187 | HVTHWMGQPFNKDDRNTACHHGLV | 2.51
188 | HVTHWMGQPFNNDDRNTACHHGLV | 2.55
